Laboratory results: patent US20090048168A1 (CASE WESTERN RESERVE UNIVERSITY, published 2009)

Key:
YFP-IP3R type 1 = assay: acceptor photobleaching FRET, fixed COS-7 cells expressing YFP-IP3R and CFP-Bcl-2
[1] = biological target: Bcl-2 exogenously expressed in WEHI7.2 cells (UniProt P10415 1-239); assay: cell-based or functional assay
Sequence of Bcl-2 exogenously expressed in WEHI7.2 cells (P10415 whole entry): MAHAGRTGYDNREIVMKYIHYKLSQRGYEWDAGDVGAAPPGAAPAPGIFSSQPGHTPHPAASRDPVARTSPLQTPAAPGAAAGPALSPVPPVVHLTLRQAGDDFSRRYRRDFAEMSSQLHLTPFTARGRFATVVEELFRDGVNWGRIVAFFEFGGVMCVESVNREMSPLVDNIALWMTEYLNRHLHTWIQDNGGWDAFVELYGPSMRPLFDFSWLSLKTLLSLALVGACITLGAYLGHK

Molecule | increase of CFP signal following YFP bleaching (FRET) (YFP-IP3R type 1) [%] | anti-CD3-induced apoptosis in Bcl-2(+) WEHI7.2 cells, fold enhancement [1] [fold]
CFP-Bcl-2 (from UniProt P10415 1-239) | 28 | –
NVYTEIKCNSLLPLDDIVRV [peptide 2, aa 1389-1408 of IP3R] | – | 2
